According to the DeepSol protein solubility set:

test: soluble on expression in E. coli; label from the status in PepcDB or PDB records

| Sequence | soluble on expression in E. coli |
| --- | --- |
| MCSLSAIMLLPTKLKPAYSDKRSNSSSSSSLFFNNRRSKKKNQSIVPVARLFGPAIFESSKLKVLFLGVDEKKHPSTLPRTYTLTHSDITAKLTLAISQSINNSQLQGWANRLYRDEVVAEWKKVKGKMSLHVHCHISGGHFLLDLFAKFRYFIFCKELPVVLKAFVHGDGNLLNNYPELQEALVWVYFHSNVNEFNKVECWGPLWEAVSPDGHKTETLPEARCADECSCCFPTVSSIPWSHSLSNEGVNGYSGTQTEGIATPNPEKL | soluble |
| MCTFCSIINRELEGYFVYEDEKFAAILDKYPVSLGHTLVIPKKHFENYLEADEDTLAELAKVVKLVSLGIKDAVKADGLRLLTNIGRSAGQVIFHLHVHIIPTWEGDYPDIFKSFKPRKEQEKEYYELLQKIIRESIENLKRKIGDYKWG | soluble |
| MCVHTRKPDGLHPKPVSHCPVIDTGQSEWRSFTFTTICMGFRPRQAYRQPSPIANETENTMSNSNIQQEAQDIHDQLPESVDASPEDIEERLTTLVDDYRVPLDEAQRSVVSTYLSDSDVDRDDVSSENENQQVDLEEITEAEQWVDITAKVADLWEPRSDSIAQVGLLGDETGTIKFTKWAKSDLEALTEGQVYRLGNVVTDEYQGQYSVKLNRTTTIEALDQDIEVGDDTTDAEGALVDIQSGSGLIKRCPEDDCTRVLQNGRCSEHGEGEGEFDLRIKGVIDNGDTVQEVIFDKEATEQVADITLAQAQEMAMDALDTSVVADEIREVTLGRYYRVQGPELGRYLLVNEFEQLAEMHDPEQLLITARSI | soluble |
| MCVNFIPPSRGQLREWLGCDPGDGQWPDEAWQDYPAPILTRDGLRFASYGFIPKRHQPAGVRLSTMNARVETIGQLRSYRDAWRNCQLCLVPMQAFYEPCYESGRAVRTKISMADGAPFAVAGLWREWREADGSISLAFTQITIHADGHAVMGRMHRPGDEKRSLAIIPAALYQAWLHCRNPEQARAFLQLFSAEAMRAEGEIADPPRQGSLFDLEHHHHHH | not soluble |
| MCWYGDPGATYRYSGVSHQPSPWHEVLADLRTRIEAFSGHVFNAVLCNRYRSGRDSMGWHADDEPELGERPFIASLSLGAERLFRIRHRGTGRTLDVPLRDGDLLLMGGELQSHWRHCVPRTARPCGERINLTFRRVVPRSLEHHHHHH | not soluble |
| MDAEPKRKFGVVVVGVGRAGSVRLRDLKDPRSAAFLNLIGFVSRRELGSLDEVRQISLEDALRSQEIDVAYICSESSSHEDYIRQFLQAGKHVLVEYPMTLSFAAAQELWELAAQKGRVLHEEHVELLMEEFEFLRREVLGKELLKGSLRFTASPLEEERFGFPAFSGISRLTWLVSLFGELSLISATLEERKEDQYMKMTVQLETQNKGLLSWIEEKGPGLKRNRYVNFQFTSGSLEEVPSVGVNKNIFLKDQDIFVQKLLDQVSAEDLAAEKKRIMHCLGLASDIQKLCHQKK | soluble |
| MDALIMAGGKGTRLKENVEKPILNICEKPMIDYVIDSLLNSKIEKIYVAVSIHTPKTKEYLEKKYRLDRNYNPKIDIICTSGTNYVDDLNECMEFFKEPFLILSSDIPTIKPKVINSIIQDYLFVNNSCNRIESFCVVTKDDDYVGTPSINMGGYIPLGINILTPKHGEQTEILHVIKDIIVNVNTLSDKKLVETLINKVVELEHHHHHH | soluble |
| MDALQAYGGSDSEHSDDDASMDQVAKGKSSTLLERAIVTAPDVESKSAIRQVAIVDPKTKEIKSNPKFDQLFKPESGPVNHFKSEQQRSQKNTLTGFVEPAHLNEFHFNRQIRSFDTLGYAQNPTAESGTTHFVGDVKKAEAEKGVSLFESKKTGGEKRKRVRNDDSADIDGYTGPWSRFIDEKTVAKPTPELQKQMDEIVKKRQEKSRRFKKEKEDSEQMAEESSTLHLKEAEDYQGRSFLVPPSFTGVNLREDYVPERCFVPKKLVHTYRGHNKGVNFLQWFPKSAHLFLSCSMDTKIKLWEVYDRQRVVRTYAGHKLPVREVAFNNEGTEFLSASFDRYVKLWDTETGQVKQRFHTGHVPYCLKYHPDDDKNHMFLVGMQNKKIIQWDSRSGEIVQEYDRHLQAVNSITFFDKNRRFASTSDDKSVRIWEWEIPVDTKLIQNVGLHAIPTMTKSPNDKWVVGQCMDNRIVLFQLVDDKLRFSKKKAFRGHNAAGYACNIDFSPDQSFLISGDADGKLFIWDWRTHKIVGKWKAHDSTCIAALWHPHEKSRMITAGWDGLIKMWN | soluble |
| MDALTDSGSDPLLSAALGSPIHHAILSMDDEVDGNCDDVDDISPESHHDNHFIDFTDDLVVQTERNLSKKGRTSNRNARQGYDNYATLTNLQPLPPISTVTSKSTKVQRPSPSPNFYFPTSSNSSYDMKYEEEEDDCEGITHSSSSPSDFSNHGTDLNHPFSASSFDSFDVTTVSTTATSTIMNSTDKFIARIQEADSTTKSPKGTSPAALMHGHCEEDFDDGEELNTKELALQIAAELKRYSIPQAIFAERVLCRSQGTLSDLLRNPKPWSKLKSGRETFRRMAKWLEEPEFQRMSALRLAACKRKEEHTTPNSPQMVVPKKTRLVFSDIQRRTLQAIFRETKRPSREMQITISQQLNLDPTTVANFFMNARRRGHDLKQETSESEERSEEPSIHFEHSASSSSASSSSSSSMQLDNYICDINTINILEEPSPEPREIKYSMQLLENELDFPANILEP | not soluble |
| MDALVSTKANSIAYQRSTVIIPAYNEEKRLMPVLYELCEYIRSNSLEWKVMVSIDGDDGTESNVKIMMQEYSFLSYSKGKGRGGKGAAIKRAITSATGEFVILMDADGSVPLKEIVKALDLTNYYDLIIFDRYSNRGNRIPFIRRFPSRGFNKLVRIFLGLKINDTQCGYKIIKREYAQRAFNKITISNAFFDVALLYYLKKERAKYIEIPVEYNYDRNSKFHVVELVLGEGISLIAFRIRNSRFYKYVPEKLISLYYRKFRWILEHHHHHH | soluble |
| MDASTHFRDRGALITGLMSGALDAVDAVARTRPAVEVLGLLVPVDGLMEDYLNGRAREGLGVTRSEFEPWRRQLLAVVAALLERWVGDDADLWRALAMRAGSYCGTVVELVDSVVRPEHADPASWAGRAPRWPRGVDASAVLLALAPPGIAEAFLDDCVTNAAAAGVLTRMLDRGPLHPLFVEYALGSLGTEAMRASLNRNPAYAIAQLRDQVLRERTDIAVLEHAYFAPPTDRALRVGLVRLAEAVGGFRPRFISRLESHAEDIASLEPLLVCSDPQLVHWVLRRVNATLKVPAMRWAAYATLALTAGPEPVWALEQERVGTLSRMAEPVRASMSTGSVAPILAAAGAAPVTIGPAGSAIELGAPLIEPWPYTELICEHVEGDGHRADPVDKPAADRPSSTRLGRSAEV | not soluble |
| MDDHGRTPSTNQPILYVLDTNVLIHDPNALLNFEEHHVAIPMTVLEELDKLKAGKHSVAAECRQAIRLIDKTLGEASPEEVEKGVPIDRGTGVFKGFLSILMSKREEPNSLLPEHLNDNIIINQLIDLHARNKDLSVVLVTKDINMRLKARACGIDAEDYSTDQLVDDVSLLSRGYHDMTGSFWDRVNKVDTRQERGRTWHRVQLNEMLPAVHINEFIVDEQGFVGWIKGVKNDELLILDMHQEPLLHQEAWGLKPRDIYQGLALFALLDPDIHLVNLSGPAGSGKTILALAAAIEQTMVTKRYRRIIATRSVQGLDQEIGFLPGTEAEKMEPWLGAITDNLEALHMDDENTHGSVDYILSKVPLQFKSLNYIRGRSFQQSLILIDECQNLTPHQMKTIITRAGAGSKVVCLGNLAQIDTPYLSATSSGLTYLTERFKDFPNGVHLTLQGVPRSILAEYAESHL | soluble |
| MDDITDGLRYRISNVIHVSPELTYDGRIMSAGKLLKLMDDLGGIICLRYLDHNSSNLYDNSFNAVVTVAVKGLAFYSPIRLNDIILIRAGLVYVGNTSADILINVVREDLNGAKEHVATAYFTYVRVDKDGKPIKIP | soluble |
| MDDLMKDRIDLLIDYIMKHCLWQFHSRSWDRKRQNEGILTKTTQLLCDEPVDLGTPADKCYWVDAVCLADAYKSRYPWLKTMDKDDIKALMGALHERLDHLTITGSLNLELTDQHYLEHHHHHH | soluble |
| MDEEMLIPEEEYQKSGVHIGTQVKSSDMKPYIFKIRNDGLYILDVKKTNSKLIVAGKMLARFEPQDILVVAQRQYAFRPVAKFAEVTGATAITGRFNPGTLTNPSLKFYKEVKVIIVTDPLADVQAMKEAVKIGIPIIALCDANNKTDFVDLIIPTNNKGRRSLAVIYWLLAREILKNRGTITSYDQFKYTIDDFEAQI | not soluble |
